The target in the assay is β6 Δ746-764 deletion mutant expressed in SW480 cells (human) (UniProt P06756). The assay is described as follows: β6 immunoprecipitation (R6G9) from SW480 transfectants, blot with E10 (FIG. 27B).

Where only a bound is given, the exact number is not on record here.

Sequence of β6 Δ746-764 deletion mutant expressed in SW480 cells (human) (chain, as listed by the source mutant, chain 1 of 2): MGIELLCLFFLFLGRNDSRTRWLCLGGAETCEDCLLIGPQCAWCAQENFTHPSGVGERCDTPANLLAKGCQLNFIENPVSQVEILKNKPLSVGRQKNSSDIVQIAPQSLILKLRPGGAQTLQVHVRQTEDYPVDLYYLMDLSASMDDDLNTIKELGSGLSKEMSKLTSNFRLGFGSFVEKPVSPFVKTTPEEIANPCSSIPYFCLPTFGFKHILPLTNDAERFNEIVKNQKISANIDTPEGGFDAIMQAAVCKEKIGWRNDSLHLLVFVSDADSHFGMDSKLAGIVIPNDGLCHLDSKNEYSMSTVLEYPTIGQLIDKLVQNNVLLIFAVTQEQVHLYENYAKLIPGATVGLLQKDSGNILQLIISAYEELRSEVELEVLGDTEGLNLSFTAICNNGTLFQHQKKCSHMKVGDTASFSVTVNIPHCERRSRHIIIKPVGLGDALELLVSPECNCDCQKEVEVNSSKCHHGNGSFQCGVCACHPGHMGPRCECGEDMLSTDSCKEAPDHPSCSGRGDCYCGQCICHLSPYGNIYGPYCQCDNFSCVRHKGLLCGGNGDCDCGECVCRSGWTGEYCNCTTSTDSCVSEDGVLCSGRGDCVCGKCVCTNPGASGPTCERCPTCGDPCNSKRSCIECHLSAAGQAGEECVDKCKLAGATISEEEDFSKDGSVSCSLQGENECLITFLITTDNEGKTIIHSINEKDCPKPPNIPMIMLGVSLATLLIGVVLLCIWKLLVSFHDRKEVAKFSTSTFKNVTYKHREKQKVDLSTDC
Sequence of β6 Δ746-764 deletion mutant expressed in SW480 cells (human) (P06756 31-1048, stated change not applied, chain 2 of 2): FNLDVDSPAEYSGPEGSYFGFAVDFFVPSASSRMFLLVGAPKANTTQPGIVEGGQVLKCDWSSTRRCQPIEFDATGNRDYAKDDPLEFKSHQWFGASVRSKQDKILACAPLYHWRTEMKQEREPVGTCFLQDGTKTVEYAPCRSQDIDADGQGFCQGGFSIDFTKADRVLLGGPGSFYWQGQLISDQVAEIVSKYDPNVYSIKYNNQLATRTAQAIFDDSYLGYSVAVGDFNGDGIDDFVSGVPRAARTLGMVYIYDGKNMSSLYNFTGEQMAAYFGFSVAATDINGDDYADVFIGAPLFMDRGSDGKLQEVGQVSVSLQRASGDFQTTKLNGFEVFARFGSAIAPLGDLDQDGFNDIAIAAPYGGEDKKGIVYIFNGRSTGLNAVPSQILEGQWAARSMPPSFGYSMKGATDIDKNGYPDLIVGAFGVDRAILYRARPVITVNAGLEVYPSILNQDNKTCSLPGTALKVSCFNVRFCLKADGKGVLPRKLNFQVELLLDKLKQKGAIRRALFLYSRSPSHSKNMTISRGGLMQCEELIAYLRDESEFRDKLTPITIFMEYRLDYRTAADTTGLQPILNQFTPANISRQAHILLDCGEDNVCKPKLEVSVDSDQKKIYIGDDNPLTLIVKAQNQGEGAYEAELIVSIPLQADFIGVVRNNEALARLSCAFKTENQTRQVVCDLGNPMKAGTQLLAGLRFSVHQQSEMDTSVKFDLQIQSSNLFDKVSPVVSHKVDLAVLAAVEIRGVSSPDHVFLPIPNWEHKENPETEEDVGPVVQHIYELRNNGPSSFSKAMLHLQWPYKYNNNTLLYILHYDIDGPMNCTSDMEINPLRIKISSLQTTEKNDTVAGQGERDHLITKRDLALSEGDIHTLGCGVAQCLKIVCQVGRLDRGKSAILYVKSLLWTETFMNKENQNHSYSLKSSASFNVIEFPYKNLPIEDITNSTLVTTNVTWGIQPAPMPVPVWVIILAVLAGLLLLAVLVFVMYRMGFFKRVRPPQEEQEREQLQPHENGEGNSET

For the substance “ERK (endogenous ERK1/2, band at the position of ERK2, in lysates of human cell lines) (from UniProt P28482 2-360)”, the reduction of β6-bound ERK against the wild type receptor is more than 75%.

The values above are taken from US7422883.
